Reference: patent US20230116446A1

Biological target: CD122/CD132 complex (UniProt P14784)
Experiment: cell-based or functional assay

Chain of CD122/CD132 complex (P14784 27-551 limits assumed, chain 1 of 2): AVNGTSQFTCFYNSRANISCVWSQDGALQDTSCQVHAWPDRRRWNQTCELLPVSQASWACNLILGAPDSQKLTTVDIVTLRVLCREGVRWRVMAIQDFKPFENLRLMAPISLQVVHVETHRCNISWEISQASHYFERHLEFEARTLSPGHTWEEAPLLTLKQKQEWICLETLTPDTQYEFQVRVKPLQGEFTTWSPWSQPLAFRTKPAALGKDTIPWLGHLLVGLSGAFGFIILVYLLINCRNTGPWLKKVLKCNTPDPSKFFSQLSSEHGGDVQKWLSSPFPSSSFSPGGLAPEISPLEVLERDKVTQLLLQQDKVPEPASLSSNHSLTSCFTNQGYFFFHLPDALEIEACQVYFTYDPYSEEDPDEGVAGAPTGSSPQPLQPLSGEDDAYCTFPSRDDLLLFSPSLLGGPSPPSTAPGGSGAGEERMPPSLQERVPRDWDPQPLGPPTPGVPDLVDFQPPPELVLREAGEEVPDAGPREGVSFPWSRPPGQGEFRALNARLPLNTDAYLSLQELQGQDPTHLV
Chain of CD122/CD132 complex (P31785 23-369 limits assumed, chain 2 of 2, further chain): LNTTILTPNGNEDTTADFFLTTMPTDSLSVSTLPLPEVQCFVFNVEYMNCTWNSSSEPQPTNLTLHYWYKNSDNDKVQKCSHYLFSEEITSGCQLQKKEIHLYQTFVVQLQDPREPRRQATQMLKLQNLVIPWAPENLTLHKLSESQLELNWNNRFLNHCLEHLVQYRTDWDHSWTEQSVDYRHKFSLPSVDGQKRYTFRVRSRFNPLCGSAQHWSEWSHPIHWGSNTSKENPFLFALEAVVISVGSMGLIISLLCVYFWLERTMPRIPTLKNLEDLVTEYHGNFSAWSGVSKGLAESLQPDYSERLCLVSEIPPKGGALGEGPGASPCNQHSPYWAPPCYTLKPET

Row | EC50, IL2 reporter assay (HEK 293 reporter cells, SEAP, absorbance at 650 nM) [nM] | Substance
1 | 0.066 | Fc-IL15×Fc-IL15Rα sushi domain fusion protein (Fc fusion)
2 | 0.021 | Recombinant IL-15 (PeproTech 200-15) (from UniProt P40933 49-162) (ligand)
